From patent US20200024330A1

Legend:
[1] = target: Env of the clade A HIV-1 pseudoviruses of the cross-clade 162-pseudovirus panel (n = 26); assay: cell-based or functional assay
[2] = target: Env of the clade B HIV-1 pseudoviruses of the cross-clade 162-pseudovirus panel (n = 31); assay: cell-based or functional assay
[3] = target: Env of the clade C HIV-1 pseudoviruses of the cross-clade 162-pseudovirus panel (n = 27); assay: cell-based or functional assay
[4] = target: Env of the clade D HIV-1 pseudoviruses of the cross-clade 162-pseudovirus panel (n = 25); assay: cell-based or functional assay
[5] = target: Env of the clade F HIV-1 pseudoviruses of the cross-clade 162-pseudovirus panel (n = 15); assay: cell-based or functional assay
[6] = target: Env of the clade G HIV-1 pseudoviruses of the cross-clade 162-pseudovirus panel (n = 15); assay: cell-based or functional assay
[7] = target: HIV-1 Env of isolate 93IN905 (HIV-1); assay: cell-based or functional assay
[8] = target: HIV-1 Env of isolate JR-CSF (HIV-1) (UniProt P20871); assay: cell-based or functional assay
[9] = target: HIV-1 Env of isolate MGRM-C-026 (HIV-1); assay: cell-based or functional assay
[10] = target: JR-FL gp120 ΔV1/ΔV2 (HIV-1 (isolate JR-FL)); assay: ELISA on coated gp120; EC50 by nonlinear regression
[11] = target: JR-FL gp120 ΔV3 (HIV-1 (isolate JR-FL)); assay: as above
[12] = target: WT JR-FL gp120 (HIV-1 (isolate JR-FL)); assay: as above

B1: PGT-137 (antibody, V domains shown)
VH: EVHLEESGPGLVRPSETLSLTCTASGGSIRGGEWGDSDYHWGWVRHSPEKGLEWIGSIHWRGTTHYNAPFRGRGRLSIDLSRNQFSLRLTSVTAEDTAVYYCVKHKYHDIVMVVPIAGWFDPWGQGLQVTVSS
VL: EIMMTQSPAILSVSPGDRATLSCRASQSVKNNLAWYQKRPGQAPRLLIFDTSSRASGIPARFSGGGSGTEFTLTVNSMQSEDFATYYCQQYEEWPRTFGQGTKVEIK
Median IC50 against viruses neutralized with an IC50 <50 µg/ml [1]: 0.72 µg/mL | Median IC50 against viruses neutralized with an IC50 <50 µg/ml [2]: 8.55 µg/mL | Median IC50 against viruses neutralized with an IC50 <50 µg/ml [3]: 0.23 µg/mL | Median IC50 against viruses neutralized with an IC50 <50 µg/ml [4]: 6.3 µg/mL | Median IC50 against viruses neutralized with an IC50 <50 µg/ml [5]: 6.23 µg/mL | Median IC50 against viruses neutralized with an IC50 <50 µg/ml [6]: 0.23 µg/mL | Primary Neutralization Index (B cell culture well 5345 I1) [7]: 3.3 | Primary Neutralization Index (B cell culture well 5345 I1) [8]: 1.1 | Primary Neutralization Index (B cell culture well 5345 I1) [9]: 11.3 | EC50 [10]: 0.2 µg/mL | EC50 [11]: 0.1 µg/mL | EC50 [12]: 0.1 µg/mL
